Assay results reported in the supplement of paper PMC10219994.
± gives the standard deviation of the averaged measurements.

B1: library; a variant is named by its letters at N, in order (parent)
chain: GAGACCGCAACTGAAAAGTTGTGGNNNNNATAGTGAGTCGCTGCCTGCAAAGACACAACT

Variants of: B1
Test: ligation selection enrichment (abundance after / before one-round selection) (fold); higher = more template-directed ligation activity
Conditions: with T7Psub CACGGAUGCUAAUACGACUCACUAUA; MgCl2 25 mM; 42 °C; 4 h; pH 8.5
Procedure, shortened: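 Two independent reactions combined a T7-transcribed RNA ligase library with five randomized core positions (0.75 μM) and RNA substrate (6 μM) in 50 mM EPPS pH 8.5, 25 mM MgCl2, run for 4 h at 42 °C. The ligated products were sequenced on a MiSeq, and only reads with quality ≥30 at all randomized positions were counted. Enrichment is the abundance after ligation divided by the abundance before ligation.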

Variant	ligation selection enrichment
CGGAC	3.77 ± 0.4
TCCCT	0.324 ± 0.076
TCCCA	0.209 ± 0.054
TCCCC	0.279 ± 0.026
TCCCG	0.46 ± 0.093
CCCAG	0.145 ± 0.0045
CCCAC	0.168 ± 0.017
CCCAT	0.674 ± 0.13
CCCAA	0.134 ± 0.007
TGACA	0.19 ± 0.052
TGACC	0.183 ± 0.0057
TGACT	0.683 ± 0.3
TGACG	0.49 ± 0.13
CCTTG	0.874 ± 0.15
CCTTC	0.171 ± 0.02
CCTTT	0.455 ± 0.12
CCTTA	0.159 ± 0.004
CCCCG	0.49 ± 0.0033
CCCCT	0.419 ± 0.21
CCCCC	0.199 ± 0.004
CCCCA	0.14 ± 0.0052
CGACC	0.239 ± 0.071
CGACA	0.411 ± 0.093
CGACG	0.671 ± 0.15

Variant	ligation selection enrichment
CGACT	1.09 ± 0.25
TGAGA	0.376 ± 0.039
TGAGG	0.319 ± 0.074
TGAGC	0.156 ± 0.035
TGAGT	0.221 ± 0.024
TCGGG	0.41 ± 0.01
TCGGA	0.233 ± 0.022
TCGGT	0.115 ± 0.0078
TCGGC	0.232 ± 0.01
GGAGC	0.135 ± 0.022
GGAGG	0.371 ± 0.084
GGAGA	0.285 ± 0.02
GGAGT	0.165 ± 0.0095
CCGTA	0.213 ± 0.013
CCGTC	0.178 ± 0.022
CCGTG	0.111 ± 0.0037
CCGTT	0.149 ± 0.04
GCTCA	0.244 ± 0.1
GCTCG	0.533 ± 0.037
GCTCC	0.301 ± 0.0054
GCTCT	0.165 ± 0.064
AGCCT	0.307 ± 0.093
AGCCC	0.167 ± 0.05
AGCCA	0.161 ± 0.018

Variant	ligation selection enrichment
AGCCG	0.709 ± 0.025
TCTAT	0.102 ± 0.035
TCTAC	0.152 ± 0.03
TCTAG	0.285 ± 0.051
TCTAA	0.0912 ± 0.0077
GCATG	0.335 ± 0.012
GCATT	0.257 ± 0.043
GCCCA	0.209 ± 0.023
GCCCC	0.227 ± 0.022
GCCCG	0.803 ± 0.034
GCCCT	0.424 ± 0.17
CCATG	0.166 ± 0.043
CCATT	0.223 ± 0.041
TCCAT	0.303 ± 0.096
TCCAA	0.0717 ± 0.015
TCCAC	0.118 ± 0.043
TCCAG	0.128 ± 0.027
TGCCT	0.408 ± 0.18
TGCCA	0.144 ± 0.028
TGCCG	0.559 ± 0.02
TGCCC	0.1927 ± 0.0019
GCGAT	21.9 ± 4.1
GCGAA	1.35 ± 0.24
GCGAG	1.37 ± 0.06

Variant	ligation selection enrichment
GCGAC	1.92 ± 0.12
AGCTT	0.149 ± 0.13
AGCTG	0.198 ± 0.0052
AGCTA	0.209 ± 0.011
AGCTC	0.104 ± 0.0069
CGCTG	0.141 ± 0.026
CGCTT	0.126 ± 0.017
CGCTA	0.127 ± 0.032
CGCTC	0.0791 ± 0.025
ACGTA	0.221 ± 0.0031
ACGTG	0.17 ± 0.0072
ACGTC	0.172 ± 0.045
ACGTT	0.149 ± 0.0019
CCTCA	0.348 ± 0.055
CCTCT	0.266 ± 0.11
CCTCC	0.347 ± 0.0045
CCTCG	0.55 ± 0.064
GCTGG	0.462 ± 0.073
GCTGC	0.1333 ± 0.00076
GCTGT	0.15 ± 0.068
GCTGA	0.315 ± 0.015
ACTAC	0.128 ± 0.011
ACTAT	0.119 ± 0.05
ACTAA	0.168 ± 0.031

Variant	ligation selection enrichment
ACTAG	0.403 ± 0.037
GGCAG	0.55 ± 0.028
GGCAT	5.15 ± 1.1
GGCAA	0.423 ± 0.11
GGCAC	0.395 ± 0.016
GCTTC	0.176 ± 0.038
GCTTA	0.21 ± 0.0056
GCTTG	0.955 ± 0.16
GCTTT	0.4952 ± 0.0042
ACATG	0.333 ± 0.015
ACATT	0.209 ± 0.099
TCTTT	0.193 ± 0.18
TCTTG	0.678 ± 0.067
TCTTC	0.0955 ± 0.034
TCTTA	0.122 ± 0.024
CCGGT	0.152 ± 0.021
CCGGA	0.278 ± 0.019
CCGGG	0.244 ± 0.014
CCGGC	0.1797 ± 0.00074
TCGTT	0.205 ± 0.12
TCGTA	0.31 ± 0.074
TCGTG	0.173 ± 0.047
TCGTC	0.202 ± 0.02
GCTAG	0.375 ± 0.11

Variant	ligation selection enrichment
GCTAA	0.176 ± 0.0063
GCTAT	0.196 ± 0.035
GCTAC	0.15 ± 0.04
TGCTA	0.17 ± 0.012
TGCTT	0.0805 ± 0.021
TGCTC	0.117 ± 0.022
TGCTG	0.17 ± 0.017
CCCTG	0.425 ± 0.013
CCCTT	0.213 ± 0.065
CCCTC	0.14 ± 0.025
CCCTA	0.186 ± 0.0061
GGCGA	1.52 ± 0.26
GGCGT	0.168 ± 0.023
GGCGC	0.2927 ± 0.0028
GGCGG	0.252 ± 0.022
GGGAA	6.049 ± 0.019
GGGAC	30.7 ± 5.3
AGCAA	0.342 ± 0.056
AGCAC	0.319 ± 0.037
AGCAG	0.325 ± 0.015
AGCAT	3.55 ± 0.68
ACTGT	0.13 ± 0.074
ACTGA	0.286 ± 0.048
ACTGG	0.421 ± 0.0057

Variant	ligation selection enrichment
ACTGC	0.137 ± 0.025
GCCGC	0.205 ± 0.036
GCCGA	1.35 ± 0.035
GCCGG	0.313 ± 0.024
GCCGT	0.214 ± 0.082
GGACT	0.703 ± 0.31
GGACC	0.232 ± 0.06
GGACA	0.256 ± 0.046
GGACG	0.725 ± 0.049
AGACA	0.206 ± 0.011
AGACT	0.736 ± 0.21
AGACG	0.532 ± 0.039
AGACC	0.172 ± 0.011
CGATT	4.38 ± 0.59
CGATG	1.3 ± 0.22
CGATA	1.05 ± 0.21
CGATC	0.294 ± 0.018
TGGAA	5.31 ± 0.71
TGGAC	24.7 ± 2.8
GCGCT	0.519 ± 0.19
GCGCG	0.558 ± 0.0074
GCGCC	0.191 ± 0.017
GCGCA	0.289 ± 0.025
